# Results taken from US20220235135A1 (COUNCIL OF THE QUEENSLAND INSTITUTE OF MEDICAL RESEARCH, published 2022).
# Biological target: T1, Human GAL9 protein (Galectin-9) (human, UniProt O00182 1-355)
# T1 construct: Bought His-tagged protein; also called hGAL9; Human Gal9 His-tag (Acro Biosystems Cat #LG9-H5244)
# Test: Octet BLI, IgG1 on biosensor, GAL9 analyte dilution series, global fit (monovalent affinity)
# Protocol: To measure qualitative binding affinity in the GAL9 binder discovery campaigns, IgG1 reformatted binders were immobilized to a biosensor on an Octet (Pall ForteBio) biolayer interferometer.
# Soluble GAL9 antigen was then added to the system and binding measured. […] Octet kinetic analysis software was used to calculate the kinetic and equilibrium binding constants based on the rate of association and dissociation curves. Analysis was performed globally (global fit) where kinetic constants were derived simultaneously from all analyte concentration included in the experiment.
# T1 sequence (O00182 whole entry): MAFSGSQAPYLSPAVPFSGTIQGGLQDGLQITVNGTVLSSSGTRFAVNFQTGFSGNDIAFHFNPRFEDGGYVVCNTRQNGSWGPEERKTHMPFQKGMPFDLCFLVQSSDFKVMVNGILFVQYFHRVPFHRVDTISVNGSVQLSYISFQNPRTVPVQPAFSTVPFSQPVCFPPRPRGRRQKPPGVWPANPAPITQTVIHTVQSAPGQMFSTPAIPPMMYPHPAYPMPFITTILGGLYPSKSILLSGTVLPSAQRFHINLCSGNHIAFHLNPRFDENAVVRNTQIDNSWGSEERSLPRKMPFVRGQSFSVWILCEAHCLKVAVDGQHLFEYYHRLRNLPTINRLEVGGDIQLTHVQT
row,Binder,Kd [nM]
1,"P9-10 (antibody, human IgG1, kappa, V domains shown, bivalent monospecific native human full-length IgG1; also called ABS clone P9-10) VH: EVQLVESGGGLVQPGGSLRLSCAASGFTFDYYVIHWVRQAPGKGLEWVAAIDSYWGDTYYADSVKGRFTISADTSKNTAYLQMNSLRAEDTAVYYCARFYFYGFDYWGQGTLVTVSS VL: DIQMTQSPSSLSASVGDRVTITCRASQSVSSAVAWYQQKPGKAPKLLIYSASSLYSGVPSRFSGSRSGTDFTLTISSLQPEDFATYYCQQYSWSLWTFGQGTKVEIKR",5.77
2,"P9-18 (antibody, human IgG1, kappa, V domains shown, the murine IgG backbones were used only in vivo; also called ABS clone P9-18; Clone 18) VH: EVQLVESGGGLVQPGGSLRLSCAASGFTFSWYVIHWVRQAPGKGLEWVAAIYPYHSKTYYADSVKGRFTISADTSKNTAYLQMNSLRAEDTAVYYCARGYWYGMDYWGQGTLVTVSS VL: DIQMTQSPSSLSASVGDRVTITCRASQSVSSAVAWYQQKPGKAPKLLIYSASSLYSGVPSRFSGSRSGTDFTLTISSLQPEDFATYYCQQYTDAPWTFGQGTKVEIKR",6.24
3,"P9-28 (antibody, human IgG1, kappa, V domains shown, bivalent monospecific native human full-length IgG1; also called ABS clone P9-28; α-GAL9 (P9-28)) VH: EVQLVESGGGLVQPGGSLRLSCAASGFTFGFYYIHWVRQAPGKGLEWVAFIDPHGGSTYYADSVKGRFTISADTSKNTAYLQMNSLRAEDTAVYYCARLSYPGVLDYWGQGTLVTVSS VL: DIQMTQSPSSLSASVGDRVTITCRASQSVSSAVAWYQQKPGKAPKLLIYSASSLYSGVPSRFSGSRSGTDFTLTISSLQPEDFATYYCQQGYSTLVTFGQGTKVEIKR",3.36
4,"P9-15 (antibody, human IgG1, kappa, V domains shown, bivalent monospecific native human full-length IgG1; also called ABS clone P9-15; Clone 15) VH: EVQLVESGGGLVQPGGSLRLSCAASGFTFRYYWIHWVRQAPGKGLEWVAAIFPSGGITTYADSVKGRFTISADTSKNTAYLQMNSLRAEDTAVYYCARGWPWGLDYWGQGTLVTVSS VL: DIQMTQSPSSLSASVGDRVTITCRASQSVSSAVAWYQQKPGKAPKLLIYSASSLYSGVPSRFSGSRSGTDFTLTISSLQPEDFATYYCQQRDRSPYTFGQGTKVEIKR",2.21
5,"P9-16 (antibody, human IgG1, kappa, V domains shown, bivalent monospecific native human full-length IgG1; also called ABS clone P9-16) VH: EVQLVESGGGLVQPGGSLRLSCAASGFTFSYYWIHWVRQAPGKGLEWVADIYPSSGYTYYADSVKGRFTISADTSKNTAYLQMNSLRAEDTAVYYCARGWYAAYGMDYWGQGTLVTVSS VL: DIQMTQSPSSLSASVGDRVTITCRASQSVSSAVAWYQQKPGKAPKLLIYSASSLYSGVPSRFSGSRSGTDFTLTISSLQPEDFATYYCQQYALRPLTFGQGTKVEIKR",2.87
6,"P9-22 (antibody, human IgG1, kappa, V domains shown, bivalent monospecific native human full-length IgG1; also called ABS clone P9-22; α-GAL9 (P9-22)) VH: EVQLVESGGGLVQPGGSLRLSCAASGFTFSSYYIHWVRQAPGKGLEWVAAIYPFSGGTYYADSVKGRFTISADTSKNTAYLQMNSLRAEDTAVYYCARGYYVYVVMDYWGQGTLVTVSS VL: DIQMTQSPSSLSASVGDRVTITCRASQSVSSAVAWYQQKPGKAPKLLIYSASSLYSGVPSRFSGSRSGTDFTLTISSLQPEDFATYYCQQYKSSPWTFGQGTKVEIKR",4.85
7,"P9-32 (antibody, human IgG1, kappa, V domains shown, bivalent monospecific native human full-length IgG1; also called ABS clone P9-32) VH: EVQLVESGGGLVQPGGSLRLSCAASGFTFSAYWIHWVRQAPGKGLEWVALIGPDGGYTYYADSVKGRFTISADTSKNTAYLQMNSLRAEDTAVYYCARQASRGLDYWGQGTLVTVSS VL: DIQMTQSPSSLSASVGDRVTITCRASQSVSSAVAWYQQKPGKAPKLLIYSASSLYSGVPSRFSGSRSGTDFTLTISSLQPEDFATYYCQQWSSPLHTFGQGTKVEIKR",1.08
